This note sets out measurements from article PMC5056459, “Antagonistic roles of Drosophila Tctp and Brahma in chromatin remodelling and stabilizing repeated sequences” (Nature Communications, 2016).

The test deals with T1, GST-Brm 304-747 (Drosophila, UniProt P25439 304-747).
T1 construct: in pGEX5X-1; also called middle part of Brm protein; source: E. coli Rosetta2, extracted and dialysed
The test can be described thus: pull-down; GST-Brm fragments as baits, MBP-Tctp as prey, 5 micrograms each; PDB (20 mM Tris-HCl pH 7.5, 150 mM NaCl, 0.5 mM EDTA, 10% glycerol, 0.1% Triton X-100, 1 mM DTT) with 0.2% BSA, 2-3 h at 4 °C; western blot with anti-GST and anti-MBP; proteins extracted from E. coli and dialysed. The note with it: both partners purified.

T1 sequence (P25439 304-747): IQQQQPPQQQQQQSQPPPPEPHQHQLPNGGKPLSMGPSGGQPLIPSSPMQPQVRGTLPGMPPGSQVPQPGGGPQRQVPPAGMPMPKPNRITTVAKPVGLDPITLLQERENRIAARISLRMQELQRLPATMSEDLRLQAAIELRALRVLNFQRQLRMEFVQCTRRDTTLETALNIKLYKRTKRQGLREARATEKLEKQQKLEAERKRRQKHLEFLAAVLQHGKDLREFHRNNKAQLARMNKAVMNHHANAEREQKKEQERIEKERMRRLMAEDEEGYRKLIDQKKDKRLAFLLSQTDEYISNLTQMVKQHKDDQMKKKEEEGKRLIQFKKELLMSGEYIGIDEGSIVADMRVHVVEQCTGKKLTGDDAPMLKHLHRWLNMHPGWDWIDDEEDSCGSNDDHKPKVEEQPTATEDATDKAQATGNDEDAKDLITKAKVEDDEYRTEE

B1: MBP-Tctp (natural protein, Drosophila, UniProt Q9VGS2 1-172, looked up)
chain: MKIYKDIITGDEMFADTYKMKLVDDVIYEVYGKLITRQGDDIKLEGANASAEEADEGTDITSESGVDVVLNHRLTECFAFGDKKSYTLYLKDYMKKVLAKLEEKSPDQVDIFKTNMNKAMKDILGRFKELQFFTGESMDCDGMVALVEYREINGDSVPVLMFFKHGLEEEKC
notes: Drosophila Tctp in pMAL-c2; also called MBP-tagged Tctp; source: E. coli Rosetta2, extracted and dialysed
For the molecule B1, the binding result is “binds”.
